Measured values published in US20260347491.

Molecular target: human CD32b (FcgRIIb) (human) (UniProt P31994)
Assay: FACS

Chain of human CD32b (FcgRIIb) (human) (P31994 46-217): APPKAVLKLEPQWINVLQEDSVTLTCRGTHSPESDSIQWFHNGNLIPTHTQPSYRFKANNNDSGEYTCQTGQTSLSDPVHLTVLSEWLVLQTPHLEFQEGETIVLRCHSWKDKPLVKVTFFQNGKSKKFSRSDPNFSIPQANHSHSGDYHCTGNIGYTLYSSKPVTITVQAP

Pertuzumab (full)
EC50: 1.35 nM

Trastuzumab (full)
EC50: 14.1 nM
